Reference: publication PMC12302720 (The Journal of Biological Chemistry, 2025)
One block for each binder: values may come before it.

Assays:
[1] = target: T1, extracellular domain of human CD47 (HuCD47 ECD) (human, UniProt Q08722); assay: ELISA; plates coated with 1 ug/ml HuCD47 ECD or CyCD47 ECD in 0.1 M PBS; serially diluted antibodies, 37 °C, 2 h; bound antibody detected with anti-human Fc HRP; settings: both partners purified
T1 construct: human CD47 extracellular domain, amino acids Gln1-Pro121; source: bought: Acro Biosystems; not shown: His6, C-terminal, kept

[2] = target: T2, extracellular domain of cynomolgus CD47 (CyCD47 ECD) (Macaca fascicularis, UniProt A0A2K5X4I2); assay: BLI; Octet Red96; 5 ug/ml antibody held on anti-human IgG-Fc biosensors; 2-fold dilutions of HuCD47 ECD or CyCD47 ECD in 1 x PBS, 0.1% BSA, 0.02% Tween-20; 1:1 Langmuir global fit; apparent Kd; settings: both partners purified
T2 construct: cynomolgus CD47 extracellular domain; source: bought: Acro Biosystems

[3] = target: T1, extracellular domain of human CD47 …; assay: as above; settings: both partners purified
[4] = target: T3, extracellular domain of cynomolgus CD47 (CyCD47 ECD) (cynomolgus); assay: ELISA
T3 chain: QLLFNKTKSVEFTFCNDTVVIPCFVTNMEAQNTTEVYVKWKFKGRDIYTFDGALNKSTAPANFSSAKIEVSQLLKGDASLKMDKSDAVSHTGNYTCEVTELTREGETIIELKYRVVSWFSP

B1: H3L2, humanized variant of 1C8 (antibody, V domains shown)
VH: QSVKESGGGLFQPGGSLRLSCSVSGFSLSSYAISWVRQAPGKGLEYIGYISSIGDPYYADWVKGRFTISRDSSTVYLQMTSLRAEDTAVYFCARSYPGNGDLGRLDIWGQGTTVTVSS
VL: DPQLTQSPSFVSASVGDRVTITCRSSQSVYRNKYLSWYQQKPGKAPKLLIYYASTLASGVPSRFSGSGSGTEFTLTISSVQPEDAATYYCAGDYSDDIENAFGQGTKVEIK
binding result [1]: binds

B4: Hu5F9-G4, humanized mouse anti-human CD47 antibody (antibody, V domains shown)
VH: QVQLVQSGAEVKKPGASVKVSCKASGYTFTNYNMHWVRQAPGQRLEWMGTIYPGNDDTSYNQKFKDRVTITADTSASTAYMELSSLRSEDTAVYYCARGGYRAMDYWGQGTLVTVSS
VL: DIVMTQSPLSLPVTPGEPASISCRSSQSIVYSNGNTYLGWYLQKPGQSPQLLIYKVSNRFSGVPDRFSGSGSGTDFTLKISRVEAEDVGVYYCFQGSHVPYTFGQGTKLEIK
EC50 [4]: 0.04 mg/L

Results, then the binder that gave them:

binding result [1]: binds
B2: H4L2, humanized variant of 1C8 (antibody, V domains shown)
VH: QSVKESGGGLFQPGGSLRLSCSVSGFSLSSYAISWVRQAPGKGLEYIGYISSIGDPYYADWVKGRFTISRDNSKNTVYLQMTSLRAEDTAVYFCARSYPGNGDLGRLDIWGQGTTVTVSS
VL: DPQLTQSPSFVSASVGDRVTITCRSSQSVYRNKYLSWYQQKPGKAPKLLIYYASTLASGVPSRFSGSGSGTEFTLTISSVQPEDAATYYCAGDYSDDIENAFGQGTKVEIK

binding result [2]: binds
fold lower binding affinity than 1C8 [3]: 3 fold
B3: H4L3, humanized variant of 1C8 (antibody, V domains shown)
VH: QSVKESGGGLFQPGGSLRLSCSVSGFSLSSYAISWVRQAPGKGLEYIGYISSIGDPYYADWVKGRFTISRDNSKNTVYLQMTSLRAEDTAVYFCARSYPGNGDLGRLDIWGQGTTVTVSS
VL: DPMLTQSPSFLSASVGDRVTITCQSSQSVYRNKYLSWYQQKPGKAPKLLIYYASTLASGVPSRFSGSGSGTEFTLTISSLQPEDFATYYCAGDYSDDIENAFGGGTKVEIK
